The target in this experiment is Glucocorticoid-induced TNFR-related protein (GITR) (mouse (endogenous in CD4+ T cells of mice)) (UniProt O35714).
Chain of UniProt O35714 (O35714 20-228): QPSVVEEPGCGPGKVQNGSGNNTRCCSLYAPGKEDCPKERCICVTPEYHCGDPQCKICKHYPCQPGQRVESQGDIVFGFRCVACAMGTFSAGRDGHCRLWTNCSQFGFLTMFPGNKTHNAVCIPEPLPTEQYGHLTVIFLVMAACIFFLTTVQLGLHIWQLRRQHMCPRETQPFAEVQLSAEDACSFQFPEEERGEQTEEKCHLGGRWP

As for “His-tagged recombinant mouse GITR Ligand (from UniProt Q7TS55 1-173)”, the percent Foxp3+ T cells by flow cytometry: OT-II CD4+ T cells activated with OVA and autologous APCs, TGF-β and IL-2, 3 days; >60% without GITR stimulation is 10%; the percent Foxp3+ T cells by flow cytometry: WT B6 naive CD4+ T cells activated 3 days under iTreg-polarizing conditions with His-GITR Ligand (200 ng/ml plus anti-His mAb); ∼65% without GITR ligation is 4%; the percent IL-9+ Th9 cells by flow cytometry: WT B6 naive CD4+ T cells activated 3 days under iTreg-polarizing conditions with GITR ligation stood at 30%.
